Assay [1] deals with FLAG-cFLIP (exogenous, expressed in 293T cells) (human, UniProt O15519 1-480). In words: co-immunoprecipitation of FLAG-cFLIP with hFc-tagged LILRB3 constructs in 293T cells (FIG. 5e). The source says:
(§1) Western blotting and co-immunoprecipitation. Cells were lysed with RIPA buffer containing protease inhibitor (Roche Diagnostic). Samples were mixed with 2×SDS loading buffer and separated by SDS-PAGE. After transfer to nitrocellulose membranes, the protein was detected with specific primary antibodies and HRP-conjugated secondary antibodies. […] For immunoprecipitation, cells were lysed with Pierce IP Lysis Buffer (Thermo Fisher Scientific, 87787). […] Dynabeads protein A (Thermo Fisher Scientific, 10001D) was used in all co-immunoprecipitation.

Assay [2] has as its target T1, recombinant LILRB3 (human LILRB3 extracellular domain protein) (human, UniProt O75022 24-443).
T1 construct: extracellular domain; The panning method names the 'human LILRB3 extracellular domain protein'; The Octet method says only 'recombinant LILRB3', and the antigen of the ELISA is not described; also called LILRB3-ECD
In words: Octet (BLI), antibody on protein A biosensors, recombinant LILRB3 in solution. The method, then:
Affinity measurement and epitope binning: Affinity measurement and epitope binning were done as described previously (Gui et al., 2019). Briefly, antibody affinity was analyzed with the Octet RED96 instrument. […] ForteBio's data analysis software was used to extract association and dissociation rates assuming a 1:1 binding model. The Kd was calculated as the ratio koff/kₒₙ. […] In these epitope binning assays, primary antibodies (40 μg/ml) were loaded onto protein A biosensors, and remaining Fc-binding sites on the sensor were blocked with a human non-targeting IgG (200 μg/ml). […] Raw data were processed using ForteBio's Data Analysis Software 7.0. Antibody pairs were assessed for competitive binding.
A general note: BLI is a label-free optical method that tracks binding on a fibre tip over time.

Assay [3] deals with T2, LILRB3 with amino acids 509-511 mutated from QEE to AAA (human, UniProt O75022 24-631).
T2 construct: also called B3 AAA mutant; not shown: hFc tag, per the general co-immunoprecipitation method
The experiment in a line: co-immunoprecipitation in 293T cells.
From the text: as §1

Assay [4] concerns the target T3, LILRB3 with deletion of amino acids 505-515 (human, UniProt O75022 24-631).
T3 construct: Deletion mutant; not shown: hFc tag, per the general co-immunoprecipitation method
In words: co-immunoprecipitation in 293T cells.
From the text: as §1

Sequence of FLAG-cFLIP (exogenous, expressed in 293T cells) (O15519 whole entry): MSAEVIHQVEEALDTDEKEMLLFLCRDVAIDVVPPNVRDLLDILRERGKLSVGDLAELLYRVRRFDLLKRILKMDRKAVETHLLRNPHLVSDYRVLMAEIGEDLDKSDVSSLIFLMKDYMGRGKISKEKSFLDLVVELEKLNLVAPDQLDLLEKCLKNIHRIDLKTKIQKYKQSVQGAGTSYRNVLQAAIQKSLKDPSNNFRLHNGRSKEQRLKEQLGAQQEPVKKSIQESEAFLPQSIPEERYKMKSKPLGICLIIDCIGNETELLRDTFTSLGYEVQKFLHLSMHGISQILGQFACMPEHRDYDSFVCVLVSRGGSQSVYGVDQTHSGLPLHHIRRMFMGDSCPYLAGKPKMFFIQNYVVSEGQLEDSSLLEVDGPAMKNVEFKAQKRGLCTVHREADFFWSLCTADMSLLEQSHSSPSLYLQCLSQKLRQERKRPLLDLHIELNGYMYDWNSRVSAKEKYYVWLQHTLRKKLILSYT

B1: B3ICDhFc (LILRB3 intracellular domain fused to hFc at C-terminus) (Fc fusion)
chain: RRQRHSKHRTSDQRKTDFQRPAGAAETEPKDRGLLRRSSPAADVQEENLYAAVKDTQSEDRVELDSQSPHDEDPQAVTYAPVKHSSPRREMASPPSSLSGEFLDTKDRQVEEDRQMDTEAAASEASQDVTYAQLHSLTLRRKATEPPPSQEGEPPAEPSIYATLAIH
notes: domain: intracellular domain; also called B3ICD fused to human Fc; intracellular domain of LILRB3 alone; not shown: hFc (human Fc)
B1: the binding result in assay [1] is “no binding”.

B2: anti-LILRB3 IgG #1 (antibody, V domains shown)
VH: EVQLVESGGGVVQPGRSLRLSCAASGFTFSSYGMHWVRQAPGKGLEWVAFIRYDGSNKYYADSVKGRFTISRDNSKNTLYLQMNSLRAEDTAVYYCAKAGFSGWYYYGMDVWGQGTMVTVSS
VL: DIVMTQSPSSLSASVGDRLTITCRASQSISTYLNWYQQKPGKAPKLLIYGASSLQSGVPSRFSGSGSGTDFTLTISSLQPEDFATYFCQQSYGLPLTFGGGTKVDIK
notes: Fully human IgG from scFv phage display; also called anti-LILRB3 #1; B3-1
Consider B2, for which, in assay [2], the binding result is on record as “binds”.

B3: anti-LILRB3 IgG #26 (antibody, V domains shown)
VH: QVQMVESGGGLVKPGGSLRLSCAASGFTFSDHYLSWIRQAPGKGLEWVSYIDLSGSTVYYGDSVKGRFTISRDNARNSVYLQMNSLRAEDTAVYYCARGHYGLDVWGQGTMVTVSS
VL: NIQMTQSPSTLSASVGDRVTISCRASQSIGTWLAWYQQKPGKAPQLLIYKASSLHSGVPSRFSGSGSGTEFTLTISSLQPDDFATYYCQQYNLYSRTFGQGTKVEIK
notes: Fully human IgG; also called B3-26
For B3, the binding result in assay [2] was “binds”.

B4: anti-LILRB3 antibody #32 (antibody, V domains shown)
VH: QVQLVQSGAEVKKPGSSVKVSCKASGGTFSSYAISWVRQAPGQGLEWMGGIIPIFGTANYAQKFQGRVTITADESTSTAYMELSSLRSEDTAVYYCARGWNWFDPWGQGTMVIVSS
VL: QSVLTQPPSVSADPGQKVTISCSGSSSNIGKNYVSWYQQLPGTAPKLLIYDDNRRLSGTPDRFSGSKSGTSATLGITGLQTGDEADYYCGAWDSSLSAYVFGTGTTVTVL
notes: Fully human IgG; Tied to clone 'B3-32' only by the clone number; also called B3-32
As for B4, in assay [2], the binding result is recorded as “binds”.

B5: HA-TRAF2 (exogenous, expressed in 293T cells) (other, human, UniProt Q12933 1-501, looked up)
chain: MAAASVTPPGSLELLQPGFSKTLLGTKLEAKYLCSACRNVLRRPFQAQCGHRYCSFCLASILSSGPQNCAACVHEGIYEEGISILESSSAFPDNAARREVESLPAVCPSDGCTWKGTLKEYESCHEGRCPLMLTECPACKGLVRLGEKERHLEHECPERSLSCRHCRAPCCGADVKAHHEVCPKFPLTCDGCGKKKIPREKFQDHVKTCGKCRVPCRFHAIGCLETVEGEKQQEHEVQWLREHLAMLLSSVLEAKPLLGDQSHAGSELLQRCESLEKKTATFENIVCVLNREVERVAMTAEACSRQHRLDQDKIEALSSKVQQLERSIGLKDLAMADLEQKVLEMEASTYDGVFIWKISDFARKRQEAVAGRIPAIFSPAFYTSRYGYKMCLRIYLNGDGTGRGTHLSLFFVVMKGPNDALLRWPFNQKVTLMLLDQNNREHVIDAFRPDVTSSSFQRPVNDMNIASGCPLFCPVSKMEAKNSYVRDDAIFIKAIVDLTGL
notes: also called exogenous HA-TRAF2; not shown: HA tag
As for B5, the binding result in assay [3] and in assay [4] was “no binding” each time.

Values taken from US20240101667A1 (University of Texas, published 2024).
